Results: patent US8067220B2, “Alternative crystal form of monoacylglycerol lipase (MGLL)” (Janssen Pharmaceutica N.V., priority 2008, dated 2011)

What was measured:
MGLL [1] = experiment: Hydrolysis of coumarin arachidonate (C-A), apparent kcat/KM at [S]<<KM; format: biochemical, human; details: estimated; limited by solubility of C-A
From the text: (§1) A small fluorescent substrate, 4-methyl coumarin butyrate (4MC-B) was used to compare the activity of the engineered mutants to the activity of wt-MGLL (hMGLL 1-303) (SEQ ID NO: 3). The catalytic efficiency (kcat/KM) for the hydrolysis of the 4MC-B was similar for wt-MGLL (hMGLL 1-303) (SEQ ID NO: 3) and all MGLL mutants tested (Table 2). A larger more aliphatic fluorescent substrate, Coumarin Arachidonate (C-A), structurally more closely related to the MGLL natural substrate, 2-AG, was used to compare the activity of wt-MGLL (hMGLL 1-303) (SEQ ID NO: 3) to TEV protease cleaved mut-MGLL (hMGLL 1-303 L169S, L176S) (SEQ ID NO: 5).
(§2) The Michaelis-Menten parameters for the hydrolysis of 4-methylcoumarin butyrate (4MC-B) and coumarin arachidonate (C-A) substrate were determined using 4-5 nM of MGLL in 20 mM Pipes pH 7 and 150 mM NaCl at 37° C. The change in fluorescence due to substrate hydrolysis was monitored using excitation/emission wavelengths of 335/440 in a Safire II instrument from Tecan. The hyperbolic rates versus substrate concentration curves for the hydrolysis of 4MC-B were fit to the Michaelis-Menten equation using Excel.
The apparent kcat/Km ratio for the hydrolysis of C-A was determined at [S]<<KM. […] The kcat/KM values reported are the average from independent values determined from five substrate concentrations ranging from 700 to 40 nM.

MGLL [2] = experiment: Thermofluor thermal stability assay; format: physicochemical, human; details: Thermofluor, 1,8-ANS; for midpoint of the melting transition (Tm): 0.05 mg/ml protein, Pipes pH 7
From the text: (§3) Thermofluor® assays detect small changes in the intrinsic melting temperature of proteins based on binding of ligands. Compounds that interact preferentially with the native form of the protein will increase the Tm, the temperature at which half of the protein is unfolded (Pantoliano et al. 2001). The technique monitors changes in the fluorescent intensity of dyes such as 1-anilinonaphthalene-8-sulfonic acid (1,8-ANS). The fluorescent dyes are quenched in aqueous environments but increase in fluorescence on binding to the hydrophobic core of denatured proteins.
as §3, with “The Thermofluor®” for “Thermofluor®”, “assay is a powerful tool to screen for small molecule inhibitors interacting with a protein's active site or allosteric site. The assay detects” for “assays detect”
Thermofluor® assays were conducted to characterize wt-MGLL (hMGLL 1-303) (SEQ ID NO: 3) and mut-MGLL (hMGLL 1-303 L169S, L176S) and evaluate if the MGLL mutants could be used for high-throughput screening using Thermofluor®. Three microliters of protein at a concentration of 0.05 mg/ml in 50 mM Pipes pH 7, 200 mM NaCl, 100 μM 1,8-ANS, and 0.001% Tween was added to pre-dispensed compound plates. Wells were overlaid with silicone oil (1 μL, Fluka, type DC 200) to prevent evaporation. Final compound concentrations varied from 150 to 0.15 μM. Assay plates were heated at a rate of 1° C./min for all experiments over a temperature range sufficient to measure protein unfolding. Fluorescence was measured by continuous illumination with UV light (Hamamatsu LC6) supplied via fiber optic and filtered through a custom band-pass filter (380-400 nm; >6 OD cutoff). Fluorescence emission was detected by measuring light intensity using a CCD camera (Sensys, Roper Scientific) filtered to detect emission at 500±25 nm, resulting in simultaneous and independent readings of all 384 wells. One or more images were collected at each temperature, and the sum of the pixel intensity in a given area of the assay plate was recorded vs temperature, and fit to standard equations to yield the Tm.

MGLL [3] = experiment: Michaelis-Menten kinetics, hydrolysis of 4-methylcoumarin butyrate (4MC-B); format: biochemical, human; details: substrate 4MC-B; 4-5 nM MGLL, 20 mM Pipes pH 7, 150 mM NaCl, 37° C.; average of 2 or 4 assays
From the text: as §1, §2

[4] = Size exclusion chromatography of protein purified in the absence of detergent; format: physicochemical
Description: A pilot purification of wt-MGLL (hMGLL 1-303) (SEQ ID NO: 3), performed in the complete absence of detergent, generated no protein (data not shown). A second purification of wt-MGLL (hMGLL 1-303) (SEQ ID NO: 3) was done with detergent in the lysis buffer only. Frozen cell pellets for wt-MGLL (hMGLL 1-303) (SEQ ID NO: 3) were thawed, resuspended, and lysed in Bugbuster® lysis buffer for 1 hour at 4° C. Bugbuster® lysis buffer is a proprietary lysis buffer from […] that contains detergent. The lysate was clarified by centrifugation at 40,000×g for 1 hr. No detergent was added at this point or during the rest of the purification. From this point forward, the purification protocol and buffers were the same as described below for mut-MGLL. An average of 2.2 mg of wt-MGLL (hMGLL 1-303) (SEQ ID NO: 3) per liter of cell culture was obtained.
Mutant MGLL (mut-MGLL) constructs were purified in the absence of detergent. […] Fractions were analysed by SDS-PAGE. […] Purification yields were determined by Bradford assay using the protein assay kit from BioRad according to manufacturer's instruction with BSA as a standard (Bradford 1976).

[5] = Circular dichroism (CD) structural analysis; format: physicochemical; details: 5 μM protein, 10 mM cacodylic acid pH 7, 140 mM NaCl, 200 to 260 nm
Description: Circular dichroism experiments were performed on a Circular Dichroism Spectrometer Model 202 from Aviv Instruments Inc. The CD scans of wt-MGLL (hMGLL 1-303) (SEQ ID NO: 3) and TEV protease cleaved mut-MGLL (hMGLL 1-303 L169S, L176S) (SEQ ID NO: 5) (5 μM protein in 10 mM cacodylic acid pH 7 and 140 mM NaCl) were measured from 200 to 260 nm. Temperature melts were monitored at 210 nm.

Molecule: CCCCC/C=C/C/C=C\C/C=C/C/C=C/CCCC(=O)Oc1ccc2ccc(=O)oc2c1 [C-A, Coumarin Arachidonate]
- Km (MGLL [1]): > 30 µM

B1: mut-MGLL. 1-303, L169S, L176S: human MGLL 1-303 with cap-domain mutations L169S, L176S (protein)
chain: GMPEESSPRRTPQSIPYQDLPHLVNADGQYLFCRYWKPTGTPKALIFVSHGAGEHSGRYEELARMLMGLDLLVFAHDHVGHGQSEGERMVVSDFHVFVRDVLQHVDSMQKDYPGLPVFLLGHSMGGAIAILTAAERPGHFAGMVLISPLVLANPESATTFKVLAAKVLNSVLPNLSSGPIDSSVLSRNKTEVDIYNSDPLICRAGLKVCFGIQLLNAVSRVERALPKLTVPFLLLQGSADRLCDSKGAYLLMELAKSQDKTLKIYEGAYHVLHKELPEVTNSVFHEINMWVSQRTATAGTASPP
- quality of Thermofluor melting transition (MGLL [2]): strong transition
- midpoint of the melting transition (Tm) (MGLL [2]): 56.7 °C
- Kcat (MGLL [3]): 0.8 s⁻¹
- Km (MGLL [3]): 136 µM
- monomer by size exclusion [4]: 90%
- CD scan compared with wt-MGLL purified in the presence of detergent [5]: similar

B2: wt-MGLL.1-303: wild-type human MGLL isoform 2, amino acids 1-303, with N-terminal His tag and TEV site (protein)
chain: MVDHHHHHHENLYFQGMPEESSPRRTPQSIPYQDLPHLVNADGQYLFCRYWKPTGTPKALIFVSHGAGEHSGRYEELARMLMGLDLLVFAHDHVGHGQSEGERMVVSDFHVFVRDVLQHVDSMQKDYPGLPVFLLGHSMGGAIAILTAAERPGHFAGMVLISPLVLANPESATTFKVLAAKVLNLVLPNLSLGPIDSSVLSRNKTEVDIYNSDPLICRAGLKVCFGIQLLNAVSRVERALPKLTVPFLLLQGSADRLCDSKGAYLLMELAKSQDKTLKIYEGAYHVLHKELPEVTNSVFHEINMWVSQRTATAGTASPP
modifications: N-terminal His tag and TEV site
notes: wild-type human MGLL isoform 2, amino acids 1-303, with N-terminal His tag and TEV site
- quality of Thermofluor melting transition (MGLL [2]): very poor transition
- midpoint of the melting transition (Tm) (MGLL [2]): 58 °C
- Kcat (MGLL [3]): 1.13 s⁻¹
- Km (MGLL [3]): 162 µM
- aggregation by size exclusion [4]: 100%
